B1: fusion protein 218515 (designed binder, not shown: small tags and cut ends)
chain (part 1 of 2): not shown
chain (part 2 of 2): LAEAKVLALKELDKYGISNYYKNLINNAKTIEGVKALKAQIVAA
notes: also called CID 218515
B2: fusion protein 218516 (designed binder, not shown: small tags and cut ends)
chain (part 1 of 2): not shown
chain (part 2 of 2): LAEAKVLAIKELDKAGISNYYFNLINNAKTVEGVKALKAQIVAA
notes: also called CID 218516

What was measured:
Her2-Fc [1] = target: T1, Her2-Fc (human, UniProt P04626 23-652); assay: ELISA on coated Her2-Fc; 24 h in human serum at 37 C
T1 construct: Coated in ELISA
Experimental: (§1) High binding plates (Greiner, 781061) were immobilized with 2.5 μg/ml hFAP-Fc or 1.2 μg/ml Her2-Fc over night at 4° C. Dilution series of 3 μM to 0.07 pM of fusion proteins with binding specifically to Her2 were incubated in 100% human serum or 100% mouse serum for 24 h at 37° C. Dilution series of 3 µM to 0.2 pM or 1 μM to 0.01 fM of fusion proteins with binding specifically to hFAP were incubated in 100% human serum or 100% mouse serum for 24 h at 37° C. ELISA-plates were washed three times with PBST (PBS+0.1% Tween) and blocked with 3% BSA/0.5% Tween/PBS up to 2 h at room temperature (rt). After preincubation for 0 h or 24 h in the presence of serum the dilution series were incubated on ELISA-plates for up to 1 h at rt. Wells were washed with PBST and incubated with biotinylated anti-ubiquitin-antibody (1:300) for up to 1 h at rt. The binding was visualized with Streptavidin-HRP (1:5.000).
(§2) The fusion proteins comprise the albumin binding domain (referred to as HED) and the targeting moiety.

Her2-Fc [2] = target: T1, Her2-Fc; assay: ELISA on coated Her2-Fc; KD 24 h against KD 0 h, human serum
Experimental: as §1, §2

Her2-Fc [3] = target: T1, Her2-Fc; assay: ELISA on coated Her2-Fc; 0 h in mouse serum
Experimental: as §1, §2

[4] = target: T2, Her2 expressed on Sk-Br-3 cells (human, UniProt P04626 23-1255); assay: flow cytometry, dilution series on Sk-Br-3 cells
T2 construct: whole, on cells; also called human epidermal growth factor receptor 2
Experimental: Her2 expressing Sk-Br-3-cells and HEK293-hFAP overexpressing cells were thawed, washed with medium containing FCS, subsequently washed with FACS blocking buffer (PBS/0.1% Sodium Azide/3% FCS) and 100 μl seeded in 96-well round bottom plates with a density of 1×10⁶ cells/ml. Dilution series from 10 µM to 8.6 fM (CID 217781, CID 217787) and a dilution series of 3 µM to 0.2 μM (CID 218466, CID 218467, 218512, CID 218513, CID 218514, CID 218515, CID 218516) were incubated on Her2-expressing Sk-Br-3-cells and dilution series from 1 μM to 0.07 μM of fusion proteins 218690 and 218702 were incubated on hFAP-overexpressing HEK293-cell line for 45 min at 4° C. After centrifugation the supernatants were removed and cells were washed with FACS blocking buffer and 100 μl/well rabbit anti-Strep-Tag antibody (GenScript; A00626), 1:300 diluted in FACS blocking buffer were added. After removal of the primary antibody goat anti-rabbit IgG Alexa Fluor 488 antibody (Invitrogen; A4008) was applied in a 1:1000 dilution in FACS blocking buffer. Flow cytometry measurement was conducted on the Guava easyCyte 5HT device from Merck-Millipore at excitation wavelength 488 nm and emission wavelength 525/30 nm. The * in table 2 refers to a fusion protein with the albumin binding domain as dimer (homo-dimer) and/or the targeting moiety as dimer.

Her2-Fc [5] = target: T1, Her2-Fc; assay: ELISA on coated Her2-Fc; after 24 h in human serum at 37 C
Experimental: as §1, §2

Her2-Fc [6] = target: T1, Her2-Fc; assay: ELISA on coated Her2-Fc; after 24 h in mouse serum at 37 C
Experimental: as §1, §2

Her2-Fc [7] = target: T1, Her2-Fc; assay: ELISA on coated Her2-Fc; 24 h in mouse serum at 37 C
Experimental: as §1, §2

human serum albumin = target: T3, human serum albumin (human, UniProt P02768 25-609); assay: SPR, HSA immobilised on the chip, pH 7.3, 1:1 Langmuir fit
T3 construct: also called HSA
Experimental: (§3) Recombinant protein A, HSA, MSA or target (either ED-B or Her2) was immobilized on a High Capacity Amine sensor chip (Bruker) after NHS/EDC activation with a Sierra SPR-32 system (Bruker). The chip was equilibrated with SPR running buffer (PBS 0.05%, Tween pH 7.3). Injection of ethanolamine after target immobilization was used to block free NHS groups. To determine the binding of fusion proteins to FAP, the Fc-tagged target was injected with 60 or 30 nM to Protein A coupled spots followed by the injection of fusion proteins.
(§4) Binding proteins were applied to the chip in serial dilutions with a flow rate of 30 μl/min. Upon binding, analyte accumulated on the surface increasing the refractive index. This change in the refractive index was measured in real time and plotted as response or resonance units versus time. The association was performed for 120 seconds and the dissociation for 180 seconds. After each run, the chip surface was regenerated with 30 μl regeneration buffer (10 mM glycine pH 2.0 or pH 1.5) and equilibrated with running buffer. Binding studies were carried out using the Sierra SPR-32 system (Bruker); data evaluation was operated via the Sierra Analyser software, provided by the manufacturer, by the use of the Langmuir 1:1 model (RI=0).

[8] = target: T4, Her2 (immobilised on the SPR chip) (human, UniProt P04626 23-652, limits assumed); assay: SPR, Her2 immobilised on the chip, pH 7.3, 1:1 Langmuir fit
T4 construct: construct not described; also called human epidermal growth factor receptor 2
Experimental: as §3, §4

Her2-Fc [9] = target: T1, Her2-Fc; assay: ELISA on coated Her2-Fc; 0 h in human serum
Experimental: as §1, §2

Her2-Fc [10] = target: T1, Her2-Fc; assay: ELISA on coated Her2-Fc; KD 24 h against KD 0 h, mouse serum
Experimental: as §1, §2

T3 sequence (P02768 25-609 limits assumed): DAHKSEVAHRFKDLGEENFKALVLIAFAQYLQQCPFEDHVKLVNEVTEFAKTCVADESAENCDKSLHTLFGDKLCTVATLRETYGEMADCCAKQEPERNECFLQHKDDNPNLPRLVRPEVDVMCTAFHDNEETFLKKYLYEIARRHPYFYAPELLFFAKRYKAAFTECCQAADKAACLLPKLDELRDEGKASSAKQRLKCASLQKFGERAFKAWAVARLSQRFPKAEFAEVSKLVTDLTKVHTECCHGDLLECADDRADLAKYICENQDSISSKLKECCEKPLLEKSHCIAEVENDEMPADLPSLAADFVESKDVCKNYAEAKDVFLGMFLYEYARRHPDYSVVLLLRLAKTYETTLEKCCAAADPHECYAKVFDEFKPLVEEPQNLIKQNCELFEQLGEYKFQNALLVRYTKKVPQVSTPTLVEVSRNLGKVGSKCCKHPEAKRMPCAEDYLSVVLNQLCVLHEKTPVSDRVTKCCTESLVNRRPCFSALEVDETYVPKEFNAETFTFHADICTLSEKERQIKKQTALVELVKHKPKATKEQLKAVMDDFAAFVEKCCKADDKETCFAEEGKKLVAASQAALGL

| Binder | Kd (Her2-Fc [1]) [nM] | increase of KD vs target [fold] (Her2-Fc [2]) | Kd (Her2-Fc [3]) [nM] | Kd [4] [nM] | max binding after 24 h [%] (Her2-Fc [5]) | max binding after 24 h [%] (Her2-Fc [6]) | Kd (Her2-Fc [7]) [nM] | Kd (human serum albumin) [nM] | Kd [8] [nM] | Kd (Her2-Fc [9]) [nM] | increase of KD vs target [fold] (Her2-Fc [10]) |
| --- | --- | --- | --- | --- | --- | --- | --- | --- | --- | --- | --- |
| B1 | 0.28 | 0.82 | 0.18 | 1.47 | 96.1 | 108 | 0.21 | 9.1 | 2.5 | 0.34 | 1.16 |
| B2 | 0.28 | 0.71 | 0.17 | 2.57 | 98.9 | 101 | 0.2 | 10.9 | 2.4 | 0.39 | 1.21 |

From patent US20250388696A1 (NAVIGO PROTEINS, published 2025)
